{"source": "the RNAGym collection of RNA variant scans (doi:10.7554/elife.80360)", "parents": {"B1": {"name": "Hairpin Ribozyme (parent)", "chain": "GUCCUCUUUCACGUGCGCGUGAAAGAGAGAAGUGAACCAGAGAAACACACGUUGUGGUAUAUUACCUGGUA"}}, "data": [{"variants_of": "B1", "test": "self-cleavage, relative activity (ratio to wild type); higher = more cleavage; co-transcriptional", "values": [{"variant": "C4A A28U", "self-cleavage": 0.174}, {"variant": "C4A G17A", "self-cleavage": 0.174}, {"variant": "C4G C18G", "self-cleavage": 0.0835}, {"variant": "C4G C18A", "self-cleavage": 0.194}, {"variant": "C3U G69C", "self-cleavage": 0.185}, {"variant": "C4A U67C", "self-cleavage": 0.0871}, {"variant": "U5A U52G", "self-cleavage": 0.392}, {"variant": "U5A U52C", "self-cleavage": 0.274}, {"variant": "U5A U67G", "self-cleavage": 0.112}, {"variant": "C4A A43G", "self-cleavage": 0.0748}, {"variant": "C4A C16U", "self-cleavage": 0.197}, {"variant": "C4A U5G", "self-cleavage": 0.109}, {"variant": "C4A U5C", "self-cleavage": 0.23}, {"variant": "U5A A61G", "self-cleavage": 0.0553}, {"variant": "U5A A61U", "self-cleavage": 0.185}, {"variant": "U5A U9A", "self-cleavage": 0.371}, {"variant": "U5A U9G", "self-cleavage": 0.231}, {"variant": "U5C A41C", "self-cleavage": 0.734}, {"variant": "C3U U60C", "self-cleavage": 0.705}, {"variant": "C3U U60G", "self-cleavage": 0.331}, {"variant": "U5C C10A", "self-cleavage": 0.427}, {"variant": "U5C C10U", "self-cleavage": 0.423}, {"variant": "C4U U8C", "self-cleavage": 0.241}, {"variant": "C4G G34C", "self-cleavage": 1.19}, {"variant": "C3U U67C", "self-cleavage": 0.122}, {"variant": "C4G G57U", "self-cleavage": 0.151}, {"variant": "U5A G19A", "self-cleavage": 0.395}, {"variant": "C4G G21C", "self-cleavage": 0.231}, {"variant": "C4G G21U", "self-cleavage": 0.123}, {"variant": "C4U U55C", "self-cleavage": 0.093}, {"variant": "U5A U14A", "self-cleavage": 0.164}, {"variant": "C4A G34A", "self-cleavage": 0.37}, {"variant": "C4A G34C", "self-cleavage": 0.676}, {"variant": "U5C A49C", "self-cleavage": 0.377}, {"variant": "U5C A49G", "self-cleavage": 0.343}, {"variant": "C4U A22G", "self-cleavage": 0.236}, {"variant": "U5A U70G", "self-cleavage": 0.171}, {"variant": "C4U G51C", "self-cleavage": 0.337}, {"variant": "C4U G32A", "self-cleavage": 0.196}, {"variant": "C4U A35G", "self-cleavage": 0.304}, {"variant": "C4G A26G", "self-cleavage": 0.16}, {"variant": "C4G C66G", "self-cleavage": 0.209}, {"variant": "C4A A71C", "self-cleavage": 0.674}, {"variant": "C4U C48G", "self-cleavage": 0.123}, {"variant": "C4U C48A", "self-cleavage": 0.114}, {"variant": "C4G U58C", "self-cleavage": 0.403}, {"variant": "C4G U58A", "self-cleavage": 0.108}, {"variant": "C4U C12G", "self-cleavage": 0.259}, {"variant": "U5A C48A", "self-cleavage": 0.0341}, {"variant": "C3U U70C", "self-cleavage": 0.351}, {"variant": "C3U U70A", "self-cleavage": 0.305}, {"variant": "C3U U52A", "self-cleavage": 0.522}, {"variant": "C3U G42A", "self-cleavage": 0.123}, {"variant": "C3U G42U", "self-cleavage": 0.21}, {"variant": "U5A A28U", "self-cleavage": 0.126}, {"variant": "U5A A28G", "self-cleavage": 0.471}, {"variant": "U5A A28C", "self-cleavage": 0.297}, {"variant": "C4A U55C", "self-cleavage": 0.0693}, {"variant": "C4A U55A", "self-cleavage": 0.163}, {"variant": "C4U C16G", "self-cleavage": 0.243}, {"variant": "C4A U53A", "self-cleavage": 0.363}, {"variant": "C4A U53C", "self-cleavage": 0.206}, {"variant": "C4A G40C", "self-cleavage": 0.0835}, {"variant": "C4A G40U", "self-cleavage": 0.141}, {"variant": "C4A G40A", "self-cleavage": 0.133}, {"variant": "C4G U20G", "self-cleavage": 0.22}, {"variant": "U5C A31C", "self-cleavage": 0.0543}, {"variant": "U5C A31G", "self-cleavage": 0.391}, {"variant": "U5C A31U", "self-cleavage": 0.0715}, {"variant": "C4G A45G", "self-cleavage": 0.274}, {"variant": "C4G A64C", "self-cleavage": 0.167}, {"variant": "C4G U33A", "self-cleavage": 0.154}, {"variant": "U5C C16A", "self-cleavage": 0.693}, {"variant": "U5A G21A", "self-cleavage": 0.378}, {"variant": "U5A G21C", "self-cleavage": 0.156}, {"variant": "U5C C12A", "self-cleavage": 0.566}, {"variant": "U5C C12G", "self-cleavage": 0.244}, {"variant": "U5A C10G", "self-cleavage": 0.129}, {"variant": "U5A C10A", "self-cleavage": 0.188}, {"variant": "C4A U20A", "self-cleavage": 0.0852}, {"variant": "C4A U70G", "self-cleavage": 0.154}, {"variant": "C4A C48G", "self-cleavage": 0.207}, {"variant": "C4A C48U", "self-cleavage": 0.15}, {"variant": "C4G G40U", "self-cleavage": 0.0761}, {"variant": "C4A C10G", "self-cleavage": 0.164}, {"variant": "C3U G34U", "self-cleavage": 1.17}, {"variant": "C4U G54U", "self-cleavage": 0.198}, {"variant": "U5A A26G", "self-cleavage": 0.244}, {"variant": "C4G G25U", "self-cleavage": 0.177}, {"variant": "C4U G69C", "self-cleavage": 0.204}, {"variant": "C4U G69A", "self-cleavage": 0.12}, {"variant": "C4U A31G", "self-cleavage": 0.0741}, {"variant": "U5A G56A", "self-cleavage": 0.214}, {"variant": "C4A A31G", "self-cleavage": 0.101}, {"variant": "U5C A22G", "self-cleavage": 0.63}, {"variant": "U5A C18U", "self-cleavage": 0.554}, {"variant": "C4U A64G", "self-cleavage": 0.25}, {"variant": "C4U A64C", "self-cleavage": 0.181}, {"variant": "C4U A30U", "self-cleavage": 0.13}, {"variant": "C3U G68C", "self-cleavage": 0.142}, {"variant": "C3U U9C", "self-cleavage": 0.387}, {"variant": "C3U U9A", "self-cleavage": 0.299}, {"variant": "C3U G40C", "self-cleavage": 0.0768}, {"variant": "C3U G40U", "self-cleavage": 0.119}, {"variant": "C3U G17U", "self-cleavage": 0.473}, {"variant": "C4A G69U", "self-cleavage": 0.169}, {"variant": "C4U G68U", "self-cleavage": 0.109}, {"variant": "U5C A43U", "self-cleavage": 0.0569}, {"variant": "U5C A43C", "self-cleavage": 0.193}, {"variant": "C4G G13U", "self-cleavage": 0.21}, {"variant": "C4U G17C", "self-cleavage": 0.266}, {"variant": "C4U G17U", "self-cleavage": 0.313}, {"variant": "C4G U14C", "self-cleavage": 0.125}, {"variant": "C3U U62G", "self-cleavage": 0.259}, {"variant": "C4G U8G", "self-cleavage": 0.0927}, {"variant": "C4U C50G", "self-cleavage": 0.11}, {"variant": "C4U U33C", "self-cleavage": 0.237}, {"variant": "U5A A71G", "self-cleavage": 0.264}, {"variant": "U5A A71U", "self-cleavage": 0.334}, {"variant": "C4G U67A", "self-cleavage": 0.111}, {"variant": "U5C A39U", "self-cleavage": 0.228}, {"variant": "C4A G27A", "self-cleavage": 0.285}, {"variant": "C4A G27U", "self-cleavage": 0.557}, {"variant": "C4A G27C", "self-cleavage": 0.093}, {"variant": "C4G C48G", "self-cleavage": 0.0514}, {"variant": "C4G A49C", "self-cleavage": 0.161}, {"variant": "U5A A11G", "self-cleavage": 0.324}, {"variant": "C3U C66G", "self-cleavage": 0.0901}, {"variant": "C4A U60C", "self-cleavage": 0.521}, {"variant": "C4A U60G", "self-cleavage": 0.139}, {"variant": "C4A G19C", "self-cleavage": 0.143}, {"variant": "C3U G56A", "self-cleavage": 0.16}, {"variant": "U5C A71G", "self-cleavage": 0.389}, {"variant": "C4G U5C", "self-cleavage": 0.112}, {"variant": "C4A A41G", "self-cleavage": 0.13}, {"variant": "C4U A24U", "self-cleavage": 0.295}, {"variant": "C4G G29A", "self-cleavage": 0.0497}, {"variant": "C4U A28U", "self-cleavage": 0.178}, {"variant": "C4A C50G", "self-cleavage": 0.149}, {"variant": "C4A C50A", "self-cleavage": 0.178}, {"variant": "U5A G51C", "self-cleavage": 0.324}, {"variant": "U5A G51U", "self-cleavage": 0.389}, {"variant": "C4A C18G", "self-cleavage": 0.198}, {"variant": "C4A C18U", "self-cleavage": 0.342}, {"variant": "C4U A23U", "self-cleavage": 0.315}, {"variant": "C4U A23G", "self-cleavage": 0.299}, {"variant": "C4A G57C", "self-cleavage": 0.156}, {"variant": "C4A G57A", "self-cleavage": 0.117}, {"variant": "U5A U62C", "self-cleavage": 0.224}, {"variant": "U5A U62A", "self-cleavage": 0.139}, {"variant": "C4G U53G", "self-cleavage": 0.117}, {"variant": "C4G U53C", "self-cleavage": 0.264}, {"variant": "C4G U53A", "self-cleavage": 0.15}, {"variant": "C4G U62A", "self-cleavage": 0.191}, {"variant": "C4G A23G", "self-cleavage": 0.25}, {"variant": "C4G A23C", "self-cleavage": 0.233}, {"variant": "C4A U63G", "self-cleavage": 0.269}, {"variant": "C4A U63C", "self-cleavage": 0.115}, {"variant": "C4A U63A", "self-cleavage": 0.101}, {"variant": "C4A G56A", "self-cleavage": 0.114}, {"variant": "C4A U9A", "self-cleavage": 0.233}, {"variant": "C3U G54U", "self-cleavage": 0.227}, {"variant": "C3U U58C", "self-cleavage": 0.738}, {"variant": "C4G C38G", "self-cleavage": 0.104}, {"variant": "C4G G51A", "self-cleavage": 0.245}, {"variant": "C3U G32A", "self-cleavage": 0.08}, {"variant": "C3U G32U", "self-cleavage": 0.102}]}]}
